Experimental findings from US20120014945A1 (ACADEMIA SINICA, published 2012) are described below.

The target in test [1] is DENV-2 (16681) envelope (E) protein (dengue virus type 2 (DENV-2 16681)) (UniProt P29990). The experiment in a line: cell-based or functional assay.
The target of test [2] is T1, DENV-4 (H241) envelope (E) protein (dengue virus type 4 (DENV-4 H241), UniProt Q58HT7 280-774).
T1 construct: whole, on cells
The experiment in a line: ELISA on DENV-4-infected C6/36 cells.

For test [3], the target named is T2, DENV-3 (H87) envelope (E) protein (dengue virus type 3 (DENV-3 H87), UniProt P27915 281-773).
T2 construct: whole, on cells
In words: ELISA on DENV-3-infected C6/36 cells.

T1 sequence (Q58HT7 280-774): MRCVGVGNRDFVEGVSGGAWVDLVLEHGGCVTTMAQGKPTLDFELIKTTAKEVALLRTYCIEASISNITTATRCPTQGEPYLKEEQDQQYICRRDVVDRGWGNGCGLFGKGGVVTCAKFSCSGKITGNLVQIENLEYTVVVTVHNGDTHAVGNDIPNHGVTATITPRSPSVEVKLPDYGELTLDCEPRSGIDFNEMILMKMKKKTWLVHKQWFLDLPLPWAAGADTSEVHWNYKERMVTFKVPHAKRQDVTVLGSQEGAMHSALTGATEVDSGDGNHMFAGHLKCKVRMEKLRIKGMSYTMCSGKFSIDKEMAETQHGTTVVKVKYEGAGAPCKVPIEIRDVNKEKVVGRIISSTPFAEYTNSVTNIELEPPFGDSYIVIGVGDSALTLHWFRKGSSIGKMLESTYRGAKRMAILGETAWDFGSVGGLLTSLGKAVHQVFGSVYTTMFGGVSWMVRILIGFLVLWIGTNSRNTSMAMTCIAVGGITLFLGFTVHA

In test [1], 3H5 (antibody) yielded a PRNT50 (µg/ml), D2 of under 0.41 µg/mL and a concentration of complete inhibition of viral infection (PRNT) of 11 µg/mL.

In test [1], 4G2 (antibody) had a PRNT50 (µg/ml), D2 of under 11 µg/mL.

For normal mouse IgG (antibody), the neutralizing activity (PRNT) in test [1] was over 100 µg/mL.

B1: DB25-2 (antibody, V domains shown)
VH: QVQLKESGPGLVQPSQSLSITCTVSGFSLTDYGVHWIRQSPGKGLEWLGVIWRGGITDYNAAFMSRLSITKDNSKSQVFFKMDSLQPDDSAIYYCAKNFGTHYYGSNYGNFDYWGQGTTLTVSS
VL: VVMTQTPKFLLVSAGDRVTITCKASQSVSNDVAWYQQKPGQSPKLLIYYVSNRYSGVPDRFTGSGYGTDFTFTINTVQAEDLAVYFCQQDYSSPYTFGGGTKLEIK
For the molecule B1, the binding result in test [2] and in test [3] was “no binding (tested: A490 < 0.2 (MAb at 1 µg/ml))” in each case.
